Reference: patent US20250276075A1, “METHODS OF TREATING AXL-EXPRESSING CANCERS WITH ANTI-AXL ANTIBODIES, ANTIBODY FRAGMENTS AND THEIR IMMUNOCONJUGATES” (BIOATLA, INC., priority 2020, published 2025)

What was measured:
[1] = molecular target: Axl (UniProt P30530); assay: ELISA, 1:3 dilution
[2] = molecular target: Axl (UniProt P30530); assay: ELISA, 1:9 dilution
[3] = molecular target: T1, Axl (Homo sapiens, UniProt P30530); assay: Affinity ELISA of CPE mutant antibodies for binding to Axl at pH 6.0 over pH 7.4; settings: light chain variable region mutants; for Affinity ELISA CPE mutant ratio (1:3, pH 6.0/7.4): 1:3 dilution; for Affinity ELISA CPE mutant ratio (1:9, pH 6.0/7.4): 1:9 dilution
T1 sequence (P30530 26-451 limits assumed): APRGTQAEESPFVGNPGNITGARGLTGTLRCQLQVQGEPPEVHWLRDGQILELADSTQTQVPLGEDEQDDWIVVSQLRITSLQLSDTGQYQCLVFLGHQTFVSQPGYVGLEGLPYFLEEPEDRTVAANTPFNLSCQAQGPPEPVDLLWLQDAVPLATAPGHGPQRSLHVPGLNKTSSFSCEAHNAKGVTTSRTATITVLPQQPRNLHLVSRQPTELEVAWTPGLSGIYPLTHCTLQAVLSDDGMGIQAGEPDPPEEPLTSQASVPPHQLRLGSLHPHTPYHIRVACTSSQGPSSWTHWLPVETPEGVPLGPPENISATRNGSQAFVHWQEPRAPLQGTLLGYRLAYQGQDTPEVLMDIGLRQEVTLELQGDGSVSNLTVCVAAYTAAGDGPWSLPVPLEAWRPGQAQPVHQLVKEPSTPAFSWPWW
Text: The DNA encoding the wild-type antibody was evolved to generate a mutant antibody library using Comprehensive Positional Evolution (CPE), which each position in the template antibody is randomized one at a time. Each mutant antibody in the library has only one single point mutation. The mutant antibodies in the library were generated by simultaneously screening for selective binding affinity to Axl at pH 6.0 over pH 7.4 by ELISA. Two mutant antibody dilutions were used: 1:3 and 1:9 dilutions. The mutant antibodies that have at least 1.5 ratio of binding affinity at pH 6.0 to at pH 7.4 under either 1:3 or 1:9 dilution are selected as conditionally active antibodies, with the single point mutations indicated in each of the heavy chain and light chain variable region (Tables 1 and 2).
A wild-type antibody to Axl was selected as the template antibody (with a heavy chain variable region of 063-hum10F10-HC in FIG. 1A and a light chain variable region of […]). The DNA encoding the wild-type antibody was evolved to generate a mutant antibody library using Comprehensive Positional Evolution (CPE), a method by which each position in the template antibody is randomized one at a time. Each mutant antibody in the library has only one single point mutation. The mutant antibodies in the library were generated by simultaneously screening for selective binding affinity to Axl at pH 6.0 over pH 7.4 as determined by ELISA.
Simultaneously, the expression level of the mutant antibodies was also optimized for the purpose of higher fields in a manufacturing process. The screening was done in serum using a FLAG tag because there were human antibodies in the serum which might cause false positives for the screening. The screening buffer was a carbonate buffer (Krebs buffer with ringer-standard buffer but different from PBS). […] Some of the selected mutant antibodies (scFv) were represented in FIG. 2 with their higher activity at pH 6.0 than at pH 7.4, while their activity ratios between pH 6.0 to pH 7.4 were at least 11 fold (FIG. 3).

B1: LC-F092C (antibody, V domains shown)
VH: EVQLVQSGAEVKKPGATVKISCKVSGYSFTGHTMNWIRQPPGKGLEWIGLIKPSNGGTSYNQKFKGRVTISADKSISTAYLQWSSLKASDTAMYYCAHGHYESYFAMDYWGQGTLVTVSS
VL: DIQMTQSPSSLSASVGDRVTITCKASQDVSSAVAWYQQKPGQAPRLLIYWASTRHTGVPSRFSGSGSGTEFTLTISSLQPDDFATYYCQEHCSTPLTFGQGTKVEIK
- Affinity ELISA CPE mutant ratio (1:3, pH 6.0/7.4) [1]: 3.86
- Affinity ELISA CPE mutant ratio (1:9, pH 6.0/7.4) [2]: 4.58
- Affinity ELISA CPE mutant ratio (1:3, pH 6.0/7.4) [3]: 3.862
- Affinity ELISA CPE mutant ratio (1:9, pH 6.0/7.4) [3]: 4.576

B2: LC-A051I (antibody, V domains shown)
VH: EVQLVQSGAEVKKPGATVKISCKVSGYSFTGHTMNWIRQPPGKGLEWIGLIKPSNGGTSYNQKFKGRVTISADKSISTAYLQWSSLKASDTAMYYCAHGHYESYFAMDYWGQGTLVTVSS
VL: DIQMTQSPSSLSASVGDRVTITCKASQDVSSAVAWYQQKPGQAPRLLIYWISTRHTGVPSRFSGSGSGTEFTLTISSLQPDDFATYYCQEHFSTPLTFGQGTKVEIK
- Affinity ELISA CPE mutant ratio (1:3, pH 6.0/7.4) [1]: 2.24
- Affinity ELISA CPE mutant ratio (1:9, pH 6.0/7.4) [2]: 2.14
- Affinity ELISA CPE mutant ratio (1:3, pH 6.0/7.4) [3]: 2.241
- Affinity ELISA CPE mutant ratio (1:9, pH 6.0/7.4) [3]: 2.139

B3: LC-F092D (antibody, V domains shown)
VH: EVQLVQSGAEVKKPGATVKISCKVSGYSFTGHTMNWIRQPPGKGLEWIGLIKPSNGGTSYNQKFKGRVTISADKSISTAYLQWSSLKASDTAMYYCAHGHYESYFAMDYWGQGTLVTVSS
VL: DIQMTQSPSSLSASVGDRVTITCKASQDVSSAVAWYQQKPGQAPRLLIYWASTRHTGVPSRFSGSGSGTEFTLTISSLQPDDFATYYCQEHDSTPLTFGQGTKVEIK
- Affinity ELISA CPE mutant ratio (1:3, pH 6.0/7.4) [1]: 2.97
- Affinity ELISA CPE mutant ratio (1:9, pH 6.0/7.4) [2]: 2.94
- Affinity ELISA CPE mutant ratio (1:3, pH 6.0/7.4) [3]: 2.969
- Affinity ELISA CPE mutant ratio (1:9, pH 6.0/7.4) [3]: 2.940

B4: LC-A034N (antibody, V domains shown)
VH: EVQLVQSGAEVKKPGATVKISCKVSGYSFTGHTMNWIRQPPGKGLEWIGLIKPSNGGTSYNQKFKGRVTISADKSISTAYLQWSSLKASDTAMYYCAHGHYESYFAMDYWGQGTLVTVSS
VL: DIQMTQSPSSLSASVGDRVTITCKASQDVSSAVNWYQQKPGQAPRLLIYWASTRHTGVPSRFSGSGSGTEFTLTISSLQPDDFATYYCQEHFSTPLTFGQGTKVEIK
- Affinity ELISA CPE mutant ratio (1:3, pH 6.0/7.4) [1]: 2.63
- Affinity ELISA CPE mutant ratio (1:9, pH 6.0/7.4) [2]: 2.4
- Affinity ELISA CPE mutant ratio (1:3, pH 6.0/7.4) [3]: 2.626
- Affinity ELISA CPE mutant ratio (1:9, pH 6.0/7.4) [3]: 2.403

B5: LC-F092S (antibody, V domains shown)
VH: EVQLVQSGAEVKKPGATVKISCKVSGYSFTGHTMNWIRQPPGKGLEWIGLIKPSNGGTSYNQKFKGRVTISADKSISTAYLQWSSLKASDTAMYYCAHGHYESYFAMDYWGQGTLVTVSS
VL: DIQMTQSPSSLSASVGDRVTITCKASQDVSSAVAWYQQKPGQAPRLLIYWASTRHTGVPSRFSGSGSGTEFTLTISSLQPDDFATYYCQEHSSTPLTFGQGTKVEIK
- Affinity ELISA CPE mutant ratio (1:3, pH 6.0/7.4) [1]: 3.18
- Affinity ELISA CPE mutant ratio (1:9, pH 6.0/7.4) [2]: 2.94
- Affinity ELISA CPE mutant ratio (1:3, pH 6.0/7.4) [3]: 3.179
- Affinity ELISA CPE mutant ratio (1:9, pH 6.0/7.4) [3]: 2.937

B6: LC-A034Q (antibody, V domains shown)
VH: EVQLVQSGAEVKKPGATVKISCKVSGYSFTGHTMNWIRQPPGKGLEWIGLIKPSNGGTSYNQKFKGRVTISADKSISTAYLQWSSLKASDTAMYYCAHGHYESYFAMDYWGQGTLVTVSS
VL: DIQMTQSPSSLSASVGDRVTITCKASQDVSSAVQWYQQKPGQAPRLLIYWASTRHTGVPSRFSGSGSGTEFTLTISSLQPDDFATYYCQEHFSTPLTFGQGTKVEIK
- Affinity ELISA CPE mutant ratio (1:3, pH 6.0/7.4) [1]: 2
- Affinity ELISA CPE mutant ratio (1:9, pH 6.0/7.4) [2]: 1.41
- Affinity ELISA CPE mutant ratio (1:3, pH 6.0/7.4) [3]: 1.999
- Affinity ELISA CPE mutant ratio (1:9, pH 6.0/7.4) [3]: 1.409

B7: LC-F092E (antibody, V domains shown)
VH: EVQLVQSGAEVKKPGATVKISCKVSGYSFTGHTMNWIRQPPGKGLEWIGLIKPSNGGTSYNQKFKGRVTISADKSISTAYLQWSSLKASDTAMYYCAHGHYESYFAMDYWGQGTLVTVSS
VL: DIQMTQSPSSLSASVGDRVTITCKASQDVSSAVAWYQQKPGQAPRLLIYWASTRHTGVPSRFSGSGSGTEFTLTISSLQPDDFATYYCQEHESTPLTFGQGTKVEIK
- Affinity ELISA CPE mutant ratio (1:3, pH 6.0/7.4) [1]: 1.76
- Affinity ELISA CPE mutant ratio (1:9, pH 6.0/7.4) [2]: 2
- Affinity ELISA CPE mutant ratio (1:3, pH 6.0/7.4) [3]: 1.759
- Affinity ELISA CPE mutant ratio (1:9, pH 6.0/7.4) [3]: 1.999

B8: LC-W050F (antibody, V domains shown)
VH: EVQLVQSGAEVKKPGATVKISCKVSGYSFTGHTMNWIRQPPGKGLEWIGLIKPSNGGTSYNQKFKGRVTISADKSISTAYLQWSSLKASDTAMYYCAHGHYESYFAMDYWGQGTLVTVSS
VL: DIQMTQSPSSLSASVGDRVTITCKASQDVSSAVAWYQQKPGQAPRLLIYFASTRHTGVPSRFSGSGSGTEFTLTISSLQPDDFATYYCQEHFSTPLTFGQGTKVEIK
- Affinity ELISA CPE mutant ratio (1:3, pH 6.0/7.4) [1]: 2.25
- Affinity ELISA CPE mutant ratio (1:9, pH 6.0/7.4) [2]: 3.5
- Affinity ELISA CPE mutant ratio (1:3, pH 6.0/7.4) [3]: 2.245
- Affinity ELISA CPE mutant ratio (1:9, pH 6.0/7.4) [3]: 3.504

B9: LC-F092G (antibody, V domains shown)
VH: EVQLVQSGAEVKKPGATVKISCKVSGYSFTGHTMNWIRQPPGKGLEWIGLIKPSNGGTSYNQKFKGRVTISADKSISTAYLQWSSLKASDTAMYYCAHGHYESYFAMDYWGQGTLVTVSS
VL: DIQMTQSPSSLSASVGDRVTITCKASQDVSSAVAWYQQKPGQAPRLLIYWASTRHTGVPSRFSGSGSGTEFTLTISSLQPDDFATYYCQEHGSTPLTFGQGTKVEIK
- Affinity ELISA CPE mutant ratio (1:3, pH 6.0/7.4) [1]: 3.69
- Affinity ELISA CPE mutant ratio (1:9, pH 6.0/7.4) [2]: 4.76
- Affinity ELISA CPE mutant ratio (1:3, pH 6.0/7.4) [3]: 3.692
- Affinity ELISA CPE mutant ratio (1:9, pH 6.0/7.4) [3]: 4.758

B10: LC-F092N (antibody, V domains shown)
VH: EVQLVQSGAEVKKPGATVKISCKVSGYSFTGHTMNWIRQPPGKGLEWIGLIKPSNGGTSYNQKFKGRVTISADKSISTAYLQWSSLKASDTAMYYCAHGHYESYFAMDYWGQGTLVTVSS
VL: DIQMTQSPSSLSASVGDRVTITCKASQDVSSAVAWYQQKPGQAPRLLIYWASTRHTGVPSRFSGSGSGTEFTLTISSLQPDDFATYYCQEHNSTPLTFGQGTKVEIK
- Affinity ELISA CPE mutant ratio (1:3, pH 6.0/7.4) [1]: 1.93
- Affinity ELISA CPE mutant ratio (1:9, pH 6.0/7.4) [2]: 2
- Affinity ELISA CPE mutant ratio (1:3, pH 6.0/7.4) [3]: 1.933
- Affinity ELISA CPE mutant ratio (1:9, pH 6.0/7.4) [3]: 2.004

B11: LC-A034D (antibody, V domains shown)
VH: EVQLVQSGAEVKKPGATVKISCKVSGYSFTGHTMNWIRQPPGKGLEWIGLIKPSNGGTSYNQKFKGRVTISADKSISTAYLQWSSLKASDTAMYYCAHGHYESYFAMDYWGQGTLVTVSS
VL: DIQMTQSPSSLSASVGDRVTITCKASQDVSSAVDWYQQKPGQAPRLLIYWASTRHTGVPSRFSGSGSGTEFTLTISSLQPDDFATYYCQEHFSTPLTFGQGTKVEIK
- Affinity ELISA CPE mutant ratio (1:3, pH 6.0/7.4) [1]: 3
- Affinity ELISA CPE mutant ratio (1:9, pH 6.0/7.4) [2]: 2.6
- Affinity ELISA CPE mutant ratio (1:3, pH 6.0/7.4) [3]: 3.005
- Affinity ELISA CPE mutant ratio (1:9, pH 6.0/7.4) [3]: 2.599

B12: LC-A032M (antibody, V domains shown)
VH: EVQLVQSGAEVKKPGATVKISCKVSGYSFTGHTMNWIRQPPGKGLEWIGLIKPSNGGTSYNQKFKGRVTISADKSISTAYLQWSSLKASDTAMYYCAHGHYESYFAMDYWGQGTLVTVSS
VL: DIQMTQSPSSLSASVGDRVTITCKASQDVSSMVAWYQQKPGQAPRLLIYWASTRHTGVPSRFSGSGSGTEFTLTISSLQPDDFATYYCQEHFSTPLTFGQGTKVEIK
- Affinity ELISA CPE mutant ratio (1:3, pH 6.0/7.4) [1]: 4.76
- Affinity ELISA CPE mutant ratio (1:9, pH 6.0/7.4) [2]: 2.92
- Affinity ELISA CPE mutant ratio (1:3, pH 6.0/7.4) [3]: 4.757
- Affinity ELISA CPE mutant ratio (1:9, pH 6.0/7.4) [3]: 2.920
